Results: PMC10281804, “The structural basis of the talin–KANK1 interaction that coordinates the actin and microtubule cytoskeletons at focal adhesions” (Open Biology, 2023)

Target: T1, Mouse talin-1 R7R8 (mouse, UniProt P26039 1359-1659)
T1 construct: talin-1, mouse, rod domains R7 and R8 (R7R8 double domain module); 15N-labelled for the NMR experiments; also called talin R7R8; R7R8 module; source: expressed and purified as described previously [9]
Assay: fluorescence polarisation; BODIPY-TMR coupled peptide at 0.5 µM in PBS pH 7.4, 5 mM TCEP, 0.05% Triton X-100; one-site total and nonspecific binding model
Details: both partners purified

T1 sequence (P26039 1359-1659): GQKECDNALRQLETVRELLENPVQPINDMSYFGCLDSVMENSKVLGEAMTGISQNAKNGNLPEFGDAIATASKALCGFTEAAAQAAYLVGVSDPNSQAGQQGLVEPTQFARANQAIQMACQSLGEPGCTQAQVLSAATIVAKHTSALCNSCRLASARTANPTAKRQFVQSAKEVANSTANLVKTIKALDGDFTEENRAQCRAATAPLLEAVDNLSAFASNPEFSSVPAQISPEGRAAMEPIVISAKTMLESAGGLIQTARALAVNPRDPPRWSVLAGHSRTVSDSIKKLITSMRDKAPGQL

Kd: 1200 nM
B1: KANK1 KN motif peptide (for FP), BODIPY-TMR coupled (peptide)
peptide: PYFVETPYGFQLDLDFVKYVDDIQKGNTIKKC
modifications: BODIPY-TMR coupled
notes: KANK1 KN motif, mouse residues 30-60; extra C-terminal cysteine printed beyond the stated limits 30-60; also called WT-KANK1; source: synthetic peptide, bought: GLBiochem (Shanghai)
